Data from patent publication US20230416410A1 (ZOETIS SERVICES, published 2023).
Like-named read-outs stand apart in the source and are kept apart here.

T1: recombinant bovine FcgR2 (bovine, UniProt Q28110 43-225, limits assumed, biotin on the BAP tag (BirA))
T1 construct: also called bFcgR2; bFcgRII
T1 sequence: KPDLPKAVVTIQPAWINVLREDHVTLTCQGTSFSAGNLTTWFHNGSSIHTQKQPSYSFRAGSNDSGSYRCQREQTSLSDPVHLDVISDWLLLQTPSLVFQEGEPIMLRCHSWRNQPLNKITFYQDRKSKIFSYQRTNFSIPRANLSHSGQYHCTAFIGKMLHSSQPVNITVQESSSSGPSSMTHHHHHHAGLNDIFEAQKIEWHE

T2: recombinant bovine FcgR3 (bovine, UniProt P79107 17-208, limits assumed, biotin on the BAP tag (BirA))
T2 construct: also called bFcgR3; bFcgRIII
T2 sequence: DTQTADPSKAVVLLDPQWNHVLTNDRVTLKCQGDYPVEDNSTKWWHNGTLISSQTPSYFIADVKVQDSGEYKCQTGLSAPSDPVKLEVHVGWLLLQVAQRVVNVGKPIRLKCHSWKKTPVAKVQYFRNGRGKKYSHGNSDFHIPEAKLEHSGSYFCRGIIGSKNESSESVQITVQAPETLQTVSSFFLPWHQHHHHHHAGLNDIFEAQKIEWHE


What was measured:
[1] = biological target: T3, complement component C1q (in bovine complement preserved serum) (bovine, UniProt Q5E9E3 23-244; Q2KIV9 23-247); assay: cell-based or functional assay
T3 sequence (Q5E9E3 23-244, chain 1 of 2): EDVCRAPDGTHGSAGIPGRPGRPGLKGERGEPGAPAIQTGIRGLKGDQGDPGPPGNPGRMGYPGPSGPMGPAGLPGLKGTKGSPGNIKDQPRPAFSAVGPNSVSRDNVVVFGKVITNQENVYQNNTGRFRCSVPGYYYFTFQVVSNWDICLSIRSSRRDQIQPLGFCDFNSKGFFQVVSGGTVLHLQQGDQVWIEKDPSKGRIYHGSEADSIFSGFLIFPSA
T3 sequence (Q2KIV9 23-247, chain 2 of 2): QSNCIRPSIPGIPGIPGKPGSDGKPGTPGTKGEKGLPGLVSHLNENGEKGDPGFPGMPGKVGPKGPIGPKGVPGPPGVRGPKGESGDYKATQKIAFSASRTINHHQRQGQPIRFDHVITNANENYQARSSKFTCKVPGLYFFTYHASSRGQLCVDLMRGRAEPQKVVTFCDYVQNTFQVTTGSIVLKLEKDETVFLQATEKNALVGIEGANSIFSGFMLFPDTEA

recombinant bovine FcgR1 = biological target: T4, recombinant bovine FcgR1 (bovine, biotin on the BAP tag (BirA)); assay: SPR Biacore, biotinylated receptor on SA sensor, pH 7.4, 15 C
T4 construct: also called bFcgR1; bFcgRI
Procedure: (§1) A Biacore SPR binding assay was designed to test the affinity of bovine IgG subclasses to bFcgR1, bFcgR2 and bFcgR3. All reported KD's were measured by Biacore (Cytiva, Marlborough, MA, USA) using series S SA sensor. Biotinylated-bovine FcgR1, R2 and R3 were captured on the sensor surface using a modified SA capture method to reach the desired surface density. 10 mM HEPES, 150 mM NaCl, 3 mM EDTA, 0.05% v/v surfactant P20, pH7.4 buffer was used as the running and titration buffer. Various concentrations of bovine CTLA4-Fc fusions or mAbs were titrated and flowed over the receptor surface and affinities were determined using Biacore T200 Evaluation software (Cytiva, Marlborough, MA, USA) with 1:1 binding model. The method of double referencing has been applied where the reference flow cell was subtracted from the flow cell containing immobilized receptors and blank runs containing buffer only were subtracted out from all runs. Flow cells were regenerated using 10 mM Glycine pH1.5. Runs were performed at 15° C.
(§2) The ability to knock out binding to bovine Fc gamma receptors was evaluated by comparing SPR Biacore bFcgR affinity of bIgG1a and bIgG1b wildtype Fc to the bIgG1a and bIgG1b mutations, described above. All mutations made to bIgG1 are identical for the a and b allotypes. Biacore methods for bFcgR1, R2, and R3 were performed as described in Example 1.

recombinant bovine FcgR2 [2] = biological target: T1, recombinant bovine FcgR2; assay: as above
Procedure: as §1, §2

recombinant bovine FcgR3 = biological target: T2, recombinant bovine FcgR3; assay: as above
Procedure: as §1, §2

recombinant bovine FcgR2 [3] = biological target: T1, recombinant bovine FcgR2; assay: as above; remark: listed apart in the source
Procedure: as §1
Biacore methods for bFcgR1, R2, and R3 were performed as described in Examples above. […] Although the two allotypes have different KDs for bFcgR2 and bFcgR3, both wildtype allotypes do bind. All of the mutations, bIgG3Win, bIgG3WinSAS, bIgG3SAS and bIgG3SAP for both the a and b allotypes knocked down binding to bFcgR1, bFcgR2 and bFcgR3 to negligible affinities. Thus, for knocking out receptor binding, the two allotypes compare similarly.

[4] = biological target: T3, complement component C1q (in bovine …); assay: cell-based or functional assay; remark: listed apart in the source

Binder | Kd (recombinant bovine FcgR1) [nM] | binding result (recombinant bovine FcgR2 [2]) | binding result (recombinant bovine FcgR2 [3]) | also measured
CTLA4 Fc bIgG1b (Fc fusion, No linker; also called bIgG1b wildtype; CTLA4 Fc bIgG1b wildtype) DMHVAQPAVVLASSRGVASFVCEYGSSGNAAEVRVTVLRQAGSQMTEVCAATYTVEDELAFLDDSTCTGTSSGNKVNLTIQGLRAMDTGLYICKVELMYPPPYYVGMGNGTQIYVIDPEPCPDSDDPTCKPSPCDCCPPPELPGGPSVFIFPPKPKDTLTISGTPEVTCVVVDVGHDDPEVKFSWFVDDVEVNTATTKPREEQFNSTYRVVSALRIQHQDWTGGKEFKCKVHNEGLPAPIVRTISRTKGPAREPQVYVLAPPQEELSKSTVSLTCMVTSFYPDYIAVEWQRNGQPESEDKYGTTPPQLDADSSYFLYSKLRVDRNSWQEGDTYTCVVMHEALHNHYTQKSTSKSAGK | 0.463 |  |  | CDC EC50 Value [1]: 0.036 µg/mL; Kd (recombinant bovine FcgR2 [2]): 2.48 nM; Kd (recombinant bovine FcgR3): 13.7 nM
CTLA4 Fc bIgG1bSAP (Fc fusion, No linker) DMHVAQPAVVLASSRGVASFVCEYGSSGNAAEVRVTVLRQAGSQMTEVCAATYTVEDELAFLDDSTCTGTSSGNKVNLTIQGLRAMDTGLYICKVELMYPPPYYVGMGNGTQIYVIDPEPCPDSDDPTCKPSPCDCCPPPELPGGPSVFIFPPKPKDTLTISGTPEVTCVVVDVGHDDPEVKFSWFVDDVEVNTATTKPREEQFNSTYRVVSALRIQHQDWTGGKEFKCKVHNEGLSAPIVRTISRTKGPAREPQVYVLAPPQEELSKSTVSLTCMVTSFYPDYIAVEWQRNGQPESEDKYGTTPPQLDADSSYFLYSKLRVDRNSWQEGDTYTCVVMHEALHNHYTQKSTSKSAGK |  | no binding |  | 
CTLA4 Fc bIgG1bWin (Fc fusion, No linker) DMHVAQPAVVLASSRGVASFVCEYGSSGNAAEVRVTVLRQAGSQMTEVCAATYTVEDELAFLDDSTCTGTSSGNKVNLTIQGLRAMDTGLYICKVELMYPPPYYVGMGNGTQIYVIDPEPCPDSDDPTCKPSPCDCCPPPEAAGAPSVFIFPPKPKDTLTISGTPEVTCVVVDVGHDDPEVKFSWFVDDVEVNTATTKPREEQFNSTYRVVSALRIQHQDWTGGKEFKCKVHNEGLPAPIVRTISRTKGPAREPQVYVLAPPQEELSKSTVSLTCMVTSFYPDYIAVEWQRNGQPESEDKYGTTPPQLDADSSYFLYSKLRVDRNSWQEGDTYTCVVMHEALHNHYTQKSTSKSAGK | 3.73 |  |  | CDC EC50 Value [1]: 0.015 µg/mL; Kd (recombinant bovine FcgR2 [2]): 3.24 nM
CTLA4 Fc bIgG1bSAS (Fc fusion, No linker) DMHVAQPAVVLASSRGVASFVCEYGSSGNAAEVRVTVLRQAGSQMTEVCAATYTVEDELAFLDDSTCTGTSSGNKVNLTIQGLRAMDTGLYICKVELMYPPPYYVGMGNGTQIYVIDPEPCPDSDDPTCKPSPCDCCPPPELPGGPSVFIFPPKPKDTLTISGTPEVTCVVVDVGHDDPEVKFSWFVDDVEVNTATTKPREEQFNSTYRVVSALRIQHQDWTGGKEFKCKVHNEGLSASIVRTISRTKGPAREPQVYVLAPPQEELSKSTVSLTCMVTSFYPDYIAVEWQRNGQPESEDKYGTTPPQLDADSSYFLYSKLRVDRNSWQEGDTYTCVVMHEALHNHYTQKSTSKSAGK |  | no binding |  | 
CTLA4 Fc bIgG1bWinSAS (Fc fusion, No linker) DMHVAQPAVVLASSRGVASFVCEYGSSGNAAEVRVTVLRQAGSQMTEVCAATYTVEDELAFLDDSTCTGTSSGNKVNLTIQGLRAMDTGLYICKVELMYPPPYYVGMGNGTQIYVIDPEPCPDSDDPTCKPSPCDCCPPPEAAGAPSVFIFPPKPKDTLTISGTPEVTCVVVDVGHDDPEVKFSWFVDDVEVNTATTKPREEQFNSTYRVVSALRIQHQDWTGGKEFKCKVHNEGLSASIVRTISRTKGPAREPQVYVLAPPQEELSKSTVSLTCMVTSFYPDYIAVEWQRNGQPESEDKYGTTPPQLDADSSYFLYSKLRVDRNSWQEGDTYTCVVMHEALHNHYTQKSTSKSAGK |  | no binding |  | 
CTLA4 Fc bIgG1bWinSS (Fc fusion, No linker) DMHVAQPAVVLASSRGVASFVCEYGSSGNAAEVRVTVLRQAGSQMTEVCAATYTVEDELAFLDDSTCTGTSSGNKVNLTIQGLRAMDTGLYICKVELMYPPPYYVGMGNGTQIYVIDPEPCPDSDDPTCKPSPCDCCPPPEAAGAPSVFIFPPKPKDTLTISGTPEVTCVVVDVGHDDPEVKFSWFVDDVEVNTATTKPREEQFNSTYRVVSALRIQHQDWTGGKEFKCKVHNEGLPSSIVRTISRTKGPAREPQVYVLAPPQEELSKSTVSLTCMVTSFYPDYIAVEWQRNGQPESEDKYGTTPPQLDADSSYFLYSKLRVDRNSWQEGDTYTCVVMHEALHNHYTQKSTSKSAGK | 70.4 |  |  | 
CTLA4 Fc bIgG3bSAP (Fc fusion, No linker) DMHVAQPAVVLASSRGVASFVCEYGSSGNAAEVRVTVLRQAGSQMTEVCAATYTVEDELAFLDDSTCTGTSSGNKVNLTIQGLRAMDTGLYICKVELMYPPPYYVGMGNGTQIYVIDPEPCPDSDTARRPVPTTPKTTIPPGKPTTQESEVEKTPCQCSKCPEPLGGLSVFIFPPKPKDTLTISGTPEVTCVVVDVGQDDPEVQFSWFVDDVEVHTARTKPREEQFNSTYRVVSALRIQHQDWLQGKEFKCKVNNKGLSAPIVRTISRTKGQAREPQVYVLAPPREELSKSTLSLTCLITGFYPEEIDVEWQRNGQPESEDKYHTTAPQLDADGSYFLYSRLRVNKSSWQEGDHYTCAVMHEALRNHYKEKSISRSPGK |  |  | no binding | 
CTLA4 Fc bIgG3bSAS (Fc fusion, No linker) DMHVAQPAVVLASSRGVASFVCEYGSSGNAAEVRVTVLRQAGSQMTEVCAATYTVEDELAFLDDSTCTGTSSGNKVNLTIQGLRAMDTGLYICKVELMYPPPYYVGMGNGTQIYVIDPEPCPDSDTARRPVPTTPKTTIPPGKPTTQESEVEKTPCQCSKCPEPLGGLSVFIFPPKPKDTLTISGTPEVTCVVVDVGQDDPEVQFSWFVDDVEVHTARTKPREEQFNSTYRVVSALRIQHQDWLQGKEFKCKVNNKGLSASIVRTISRTKGQAREPQVYVLAPPREELSKSTLSLTCLITGFYPEEIDVEWQRNGQPESEDKYHTTAPQLDADGSYFLYSRLRVNKSSWQEGDHYTCAVMHEALRNHYKEKSISRSPGK |  |  | no binding | 
CTLA4 Fc bIgG3bWin (Fc fusion, No linker) DMHVAQPAVVLASSRGVASFVCEYGSSGNAAEVRVTVLRQAGSQMTEVCAATYTVEDELAFLDDSTCTGTSSGNKVNLTIQGLRAMDTGLYICKVELMYPPPYYVGMGNGTQIYVIDPEPCPDSDTARRPVPTTPKTTIPPGKPTTQESEVEKTPCQCSKCPEAAGALSVFIFPPKPKDTLTISGTPEVTCVVVDVGQDDPEVQFSWFVDDVEVHTARTKPREEQFNSTYRVVSALRIQHQDWLQGKEFKCKVNNKGLPAPIVRTISRTKGQAREPQVYVLAPPREELSKSTLSLTCLITGFYPEEIDVEWQRNGQPESEDKYHTTAPQLDADGSYFLYSRLRVNKSSWQEGDHYTCAVMHEALRNHYKEKSISRSPGK |  |  | no binding | CDC EC50 Value [4]: 0.062 µg/mL
CTLA4 Fc bIgG3bWinSAS (Fc fusion, No linker) DMHVAQPAVVLASSRGVASFVCEYGSSGNAAEVRVTVLRQAGSQMTEVCAATYTVEDELAFLDDSTCTGTSSGNKVNLTIQGLRAMDTGLYICKVELMYPPPYYVGMGNGTQIYVIDPEPCPDSDTARRPVPTTPKTTIPPGKPTTQESEVEKTPCQCSKCPEAAGALSVFIFPPKPKDTLTISGTPEVTCVVVDVGQDDPEVQFSWFVDDVEVHTARTKPREEQFNSTYRVVSALRIQHQDWLQGKEFKCKVNNKGLSASIVRTISRTKGQAREPQVYVLAPPREELSKSTLSLTCLITGFYPEEIDVEWQRNGQPESEDKYHTTAPQLDADGSYFLYSRLRVNKSSWQEGDHYTCAVMHEALRNHYKEKSISRSPGK |  |  | no binding | 
